Experimental data: the supplement of paper PMC7877785
± gives the uncertainty stated by the source.

Assay: self-splicing fitness, log relative to wild type (ln ratio); higher = more splicing; Tetrahymena group I intron in knt gene, E. coli kanamycin selection, DiMSum; sequences stand for … in CUCUCU…GGAGGGAAAAGUUAUCAGGCAUGCACCUGGUAGCUAGUCUUUAAACCAAUAGAUUGCAUCGGUUUAAAAGGCAAGACCGUCAAAUUGCGGGAAAGGGGUCAACAGCCGUUCAGUACCAAGUCUCAGGGGAAACUUUGAGAUGGCCUUGCAAAGGGUAUGGUAAUAAGCUGACGGACAUGGUCCUAACCACGCAGCCAAGUCCUAAGUCAACAGAUCUUCUGUUGAUAUGGAUGCAGUUCACAGACUAAAUGUCGGUCGGGGAAGAUGUAUUCUUCUCAUAAGAUAUAGUCGGACCUCUCCUUAAUGGGAGCUAGCGGAUGAAGUGAUGCAACACUGGAGCCGCUGGGAACUAAUUUGUAUGCGAAAGUAUAUUGAUUAGUUUUGGAGUACUCGUGGUCG
Method in brief: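 DiMSum derived fitness as the error-weighted combination of fold changes across replicates, kanamycin versus no kanamycin, normalised to wild type. E. coli BL21(DE3) held the library, which randomised all eight P1ex-region intron nucleotides within the knt kanamycin-resistance gene on pET-22b(+). Six replicate transformations grew overnight at 37°C or 30°C on LB agar with or without 25 μg/mL kanamycin, also containing 100 μg/mL carbenicillin, 50 μM IPTG and 0.2% rhamnose, and pooled colonies were amplicon-sequenced on an Illumina HiSeq 2500.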

Sequence | self-splicing fitness (ln) (30 °C) | self-splicing fitness (ln) (37 °C)
UAUUAGCAAUAUUACGGCCC | -1.78 ± 0.5 | 
CUCGAGCAAUAUUACGCACG | -1.6 ± 0.23 | 
AAUUAGCAAUAUUACGACUA | 0.0301 ± 0.1 | 0.169 ± 0.099
UUCGAGCAAUAUUACGAAAC |  | -1.41 ± 0.43
GGCGAGCAAUAUUACGAGGU | -3.57 ± 0.36 | -0.907 ± 0.22
CCUUAGCAAUAUUACGCACU | -2.46 ± 0.41 | -1.29 ± 0.22
UAUAAGCAAUAUUACGAGCA | -0.842 ± 0.23 | -0.234 ± 0.18
AAGCAGCAAUAUUACGACUA | -0.00923 ± 0.1 | -0.791 ± 0.13
UUAAAGCAAUAUUACGUGGG | -1.65 ± 0.1 | -2.03 ± 0.17
CGCCAGCAAUAUUACGAUGC | -3.51 ± 0.38 | -1.75 ± 0.2
AUGUAGCAAUAUUACGUUUU | -2.64 ± 0.074 | -1.8 ± 0.1
CCGAAGCAAUAUUACGGUGA |  | -3.25 ± 0.43
UUGUAGCAAUAUUACGUAUA | -2.1 ± 0.17 | -0.709 ± 0.15
CAUAAGCAAUAUUACGUUAG | -1.13 ± 0.083 | -0.61 ± 0.11
CCCUAGCAAUAUUACGGGGG | -3.85 ± 0.24 | -3.36 ± 0.3
UUAUAGCAAUAUUACGGCGG | -0.333 ± 0.16 | 0.825 ± 0.2
GGCCAGCAAUAUUACGUCGC | -1.17 ± 0.11 | -0.0357 ± 0.11
GUAAAGCAAUAUUACGUUGA | -1.97 ± 0.071 | -0.945 ± 0.098
UGUGAGCAAUAUUACGAACA | -0.691 ± 0.42 | -0.543 ± 0.45
AAGUAGCAAUAUUACGCGCU | -1.47 ± 0.11 | -0.822 ± 0.12

Sequence | self-splicing fitness (ln) (30 °C) | self-splicing fitness (ln) (37 °C)
GUCCAGCAAUAUUACGUACU | -2.47 ± 0.14 | -1.53 ± 0.14
GCCUAGCAAUAUUACGUUAG | -4.33 ± 0.18 | -2.4 ± 0.16
CUCUAGCAAUAUUACGUCAU | -2.83 ± 0.4 | -4.18 ± 0.39
AUGGAGCAAUAUUACGAUCU |  | -0.713 ± 0.31
AAGAAGCAAUAUUACGCGUU | -2.74 ± 0.11 | -1.32 ± 0.11
UCCUAGCAAUAUUACGGAGU | -3.81 ± 0.22 | -1.3 ± 0.13
GAGCAGCAAUAUUACGCCCG | -1.84 ± 0.25 | -0.798 ± 0.27
GAGAAGCAAUAUUACGUAUU | -3.16 ± 0.14 | -3.08 ± 0.23
CCAGAGCAAUAUUACGCAGA | -2.8 ± 0.19 | -2.84 ± 0.44
GCCUAGCAAUAUUACGCGGG | -1.74 ± 0.17 | -3.1 ± 0.43
UACAAGCAAUAUUACGGGGG | -2.66 ± 0.14 | -2.02 ± 0.13
CGACAGCAAUAUUACGGGGC | -3.72 ± 0.29 | -2.87 ± 0.29
UCGAAGCAAUAUUACGAUUA | -1.19 ± 0.12 | -0.794 ± 0.11
CGUUAGCAAUAUUACGUACA | -0.358 ± 0.11 | -0.966 ± 0.12
AUCGAGCAAUAUUACGGGGG | -3.4 ± 0.25 | -2.67 ± 0.26
CGUUAGCAAUAUUACGUAGA | -2.87 ± 0.18 | -1.9 ± 0.22
CGUGAGCAAUAUUACGAACG | -2.89 ± 0.38 | 
GAAUAGCAAUAUUACGACAU | -0.389 ± 0.012 | 0.00512 ± 0.033
GGAAAGCAAUAUUACGCUAA | -0.882 ± 0.25 | -1.08 ± 0.27
